The record followed here is patent EP4673749A1 (dated 2026).

For test [1], the target named is T1, elongated peptide KPGVISVMGTA
T1 construct: Synthetic peptide, Chinese Peptide Company
T1 peptide: KPGVISVMGTA
As to the kind of experiment: hybridoma clone screening with peptides.

Test [2] concerns the target T2, PRO-C6 sequence KPGVISVMGT (last 10 amino acids of the type VI collagen alpha3 chain, 3168-3177).
T2 construct: also called selection peptide; immunogenic peptide
T2 peptide: KPGVISVMGT
Nature of the test: hybridoma clone screening with peptides.

In test [3] the target is T3, truncated peptide KPGVISVMG
T3 construct: Synthetic peptide, American Peptide Company
T3 peptide: KPGVISVMG
As to the kind of experiment: hybridoma clone screening with peptides.

The target of test [4] is T4, Pro-C3 target sequence CPTGPQNYSP (C-terminal neo-epitope of PIIINP, residues 144-153 of the alpha1 chain) (human).
T4 construct: Synthetic peptide with free C-terminus (-COOH)
T4 peptide: CPTGPQNYSP
As to the kind of experiment: antibody characterization with peptides (ELISA, as previously described). For orientation: An ELISA detects its analyte on a solid surface through an enzyme-linked reagent.

For test [5], the target named is T5, elongated peptide CPTGPQNYSPQ (human).
T5 construct: the peptide tested is printed with Pro at that position
T5 peptide: CPTGPQNYSPQ
The test is described as above.

Test [6] deals with T6, non-sense peptide GSPGKDGVRG
T6 construct: Control peptide
T6 peptide: GSPGKDGVRG
The description is as above.

B1: PRO-C6 monoclonal antibody 10A3 (antibody, mouse IgG1, kappa, V domains shown)
VH: EVQLQQSGPVMVKPGTSVKTSCKASGYTFTDFNMNWVKQSHGKSLEWIGAINPHNGATSYNQKFSGKATLTVDKSSSTAYMELNSLTSDDSAVYYCARWGNGKNSWGQGTTLTVSS
VL: DVVMTQTPLSLPVNLGDQASISCRSSQRIVHSNGITFLEWYLQKPGQSPKLLIYRVSNRFSGVPDRFSGSGSGTDFTLKISRVEAEDLGLYYCFQGSHVPLTFGAGTRLELKR
notes: Mouse IgG1 / kappa; also called monoclonal antibody specific for PRO-C6
Turning to B1, the binding result in test [1] is “no binding”; in test [2], “binds”; in test [3], “no binding”.

B2: Pro-C3 monoclonal antibody (monoclonal antibody NB61N-62) (antibody, mouse IgG2a, kappa, V domains shown)
VH: EVQLQQSGPEVLKPGASVKMSCKASGYTFINYVIHWLKQKAGQGPEWIGYMNPYNDVPKNNAKFRGKARLTSDRSSTTAYMELNSLTSEDSAVYYCARGGFFGPLSYWGQGTLVTVSA
VL: DVLMTQTPLSLSVSLGDQASISCRSSQNIVYSNGDTYFEWYLQKPGQSPKLLIYKVSQRFSGVPDRFSGSGSGTDFTLKISRVETEDLGVYYCFQGAHDPPAFGGGTKLELKR
As for B2, the binding result is listed as “binds” in test [4], “no binding” in test [5] and “no binding” in test [6].
